Experimental data from patent US20210332109A1.

Key:
[1] = biological target: VZV gE recombinant protein (CalBioreagents, Inc.) (varicella-zoster virus) (UniProt P09259); test: immunochromatographic sandwich; row antibody gold-labelled, Antibody 4 on the detection line
[2] = biological target: VZV gE recombinant protein (CalBioreagents, Inc.) (varicella-zoster virus) (UniProt P09259); test: immunochromatographic sandwich; row antibody gold-labelled, Antibody 9 on the detection line
[3] = biological target: VZV gE recombinant protein (CalBioreagents, Inc.) (varicella-zoster virus) (UniProt P09259); test: immunochromatographic sandwich; row antibody gold-labelled, Antibody 3 on the detection line
[4] = biological target: VZV gE recombinant protein (CalBioreagents, Inc.) (varicella-zoster virus) (UniProt P09259); test: immunochromatographic sandwich; row antibody gold-labelled, Antibody 18 on the detection line
[5] = biological target: VZV gE recombinant protein (CalBioreagents, Inc.) (varicella-zoster virus) (UniProt P09259); test: immunochromatographic sandwich; row antibody gold-labelled, Antibody 2 on the detection line
[6] = biological target: VZV gE recombinant protein (CalBioreagents, Inc.) (varicella-zoster virus) (UniProt P09259); test: immunochromatographic sandwich; row antibody gold-labelled, Antibody 5 on the detection line
[7] = biological target: the antibody (of the immunochromatographic analysis device used in Test Example 8); test: competitive inhibition in the immunochromatographic sandwich on VZV gE recombinant protein, P1 added; row 5 ng/mL
[8] = biological target: the antibody (of the immunochromatographic analysis device used in Test Example 8); test: competitive inhibition in the immunochromatographic sandwich on VZV gE recombinant protein, P1 added; row 0.5 ng/mL
[9] = biological target: the antibody (of the immunochromatographic analysis device used in Test Example 8); test: competitive inhibition in the immunochromatographic sandwich on VZV gE recombinant protein, P2 added; row 0.5 ng/mL
[10] = biological target: the antibody (of the immunochromatographic analysis device used in Test Example 8); test: competitive inhibition in the immunochromatographic sandwich on VZV gE recombinant protein, P2 added; row 5 ng/mL
[11] = biological target: the antibody (of the immunochromatographic analysis device used in Test Example 8); test: competitive inhibition in the immunochromatographic sandwich on VZV gE recombinant protein, P3 added; row 0.5 ng/mL
[12] = biological target: the antibody (of the immunochromatographic analysis device used in Test Example 8); test: competitive inhibition in the immunochromatographic sandwich on VZV gE recombinant protein, P3 added; row 5 ng/mL
[13] = biological target: the antibody (of the immunochromatographic analysis device used in Test Example 8); test: competitive inhibition in the immunochromatographic sandwich on VZV gE recombinant protein, P4 added; row 5 ng/mL
[14] = biological target: the antibody (of the immunochromatographic analysis device used in Test Example 8); test: competitive inhibition in the immunochromatographic sandwich on VZV gE recombinant protein, P4 added; row 0.5 ng/mL

VZV gE recombinant protein (CalBioreagents, Inc.) (varicella-zoster virus), sequence (P09259 31-538 limits assumed): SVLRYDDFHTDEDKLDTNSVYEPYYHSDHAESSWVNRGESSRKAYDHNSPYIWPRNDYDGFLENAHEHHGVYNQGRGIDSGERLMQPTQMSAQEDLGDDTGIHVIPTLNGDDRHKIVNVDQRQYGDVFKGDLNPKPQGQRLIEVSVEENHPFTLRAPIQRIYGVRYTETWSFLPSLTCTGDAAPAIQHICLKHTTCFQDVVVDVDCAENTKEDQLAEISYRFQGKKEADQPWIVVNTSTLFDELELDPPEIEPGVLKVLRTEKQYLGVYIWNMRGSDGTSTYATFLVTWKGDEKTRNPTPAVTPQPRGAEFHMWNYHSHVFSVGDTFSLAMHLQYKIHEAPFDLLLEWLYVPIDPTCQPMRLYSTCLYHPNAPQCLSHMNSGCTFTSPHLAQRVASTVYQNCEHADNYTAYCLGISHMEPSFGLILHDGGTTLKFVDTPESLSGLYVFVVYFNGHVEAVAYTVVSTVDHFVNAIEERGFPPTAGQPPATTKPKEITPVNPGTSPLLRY

B1: Antibody 9 (antibody, V domains shown)
VH: EVQLEESGPELVKPGASVKIPCKASGYTFTDYNMDWVKQNHGKSLEWIGEINPENGGTIYNQTFKGKATLTVDKSSSTAYMELRSLTSEDTAVYYCARSPWFTYWGQGTLVTVSA
VL: DIVLTQTTASLSMAIGEIVTIRCITSTDIGDDMNWYQQKPGEPPKFLISEGNTLRPGVPSRFSSSGYGTDFVFTVENILSEDVADYYCLQSDNLPHVRLGDKVGNK
color development intensity [1]: 5
color development intensity [2]: 29
color development intensity [3]: 53
color development intensity [4]: 218
color development intensity [5]: 39
color development intensity [6]: 52

NSVYEPYYHSDHAESSWVNR
color development intensity [7]: 726 mAbs
color development intensity [8]: 136 mAbs

YYHSDHAESSWVNRGESSR
color development intensity [9]: 127 mAbs
color development intensity [10]: 697 mAbs

SSWVNRGESSRKAYDHNSPY
color development intensity [11]: 128 mAbs
color development intensity [12]: 677 mAbs

ESSRKAYDHNSPYIWPRNDY
color development intensity [13]: 596 mAbs
color development intensity [14]: 149 mAbs
